Measurements as given in article PMC8196545 (Cell reports, 2021).
Where a chain is given by its changes, count along the chain named.

B1: c29260 (antibody, V domains shown)
VH: QVRLQESGPGLVRPSETLSLTCLVSGDSITSNYWSWIRQPPGKTLEWIGFMYNSGDANYNPSLQSRVSISADTANNQFALRLTSVTAADTAVYYCARHPSRGSNYDSVTGDTYYYYYGIDVWGPGKAVAVSS
VL: DIQMTQSTPSLSASLGDKITISCQASRDIDTSLNWYQQKPGKSPKLLVVAASTLETGVPSRFSASGSGTHFTLTINDLQRDDVATYFCQQYAALPLTFGGGTRVDLR
B2: c10840 (antibody, V domains shown)
V domain 1: EVRLDQSGAEMRKPGTSVRLSCTVSGHTTSDFFIHWVKQAPQRGPQWMGLINVEDENVIYAEVFQGRISIVADTSKTTVFLDLSHLTFEDTALYFCTTHTLEKETGDYVAAFDSWGQGTFLSVSS
V domain 2: QSVLTQPPSVSAVPGQKVIISCSGRTSNIGTNFVSWYQQFPGAAPKLLIYDTFHRPSGISDRFSASKSDTSATLAITALQPGDEAEYYCGAWDSGLNPAVFVFGSGTRVFVL
B3: c21079 (antibody, V domains shown)
VH: EVQLVQSGGGEARPGDSLRISCAVSGFQFNQYAMSWVRQRPGKGLEWVSSADWTGNSVHYAGSLGDRFSVSRALYGHSLELQMNSLRPEDTAVYYCARQDFYASESRAFSEIHGNFFDLWGQGTRVTVSP
VL: QSALTQPPSASGSPGQSVIISCTGASSDISGHEYVSWYQQHAAKVPKLIIYEVTKRPSGVPDRFIGSRSGNTASLTISGLQADDEADYYCASYRHNDRSYVFGTGTTVAVL
B4: c11475 (antibody, V domains shown)
VH: EARLVESGGGRVQPGGSLRLSCEASGFRFSSYTFNWVRQSPGKGLEWLAKISASPFGRSQVNYAHSVEGRFIISRDNDGNSLRLQMNDLRGGDSGVYYCARAPWQERNLDYNYAMDVWGQGTTVIVSS
VL: ELVLTQSPGTLSLSPGERATVSCRASQSLRRDSLAWYQQKPGHSPRLLIFAASNRVPGIPYRFSGTGSGTQFTLTIEKMEPEDFAVYYCQSYGSSPLYTFGQGTKLDIN
B5: c5337 (antibody, V domains shown)
VH: QVRLQESAPRLVKPSETLSLTCTVSGGSIFPFFYSWIRQAPGGGLQWIGRLYSNTGSSKSNPSLHLRVALSVDRSRNQVGLKMTSMTAADTGVYYCVRDIMRDFDDFNGAGGVYGGVDIWGRGTAVTVSS
VL: QFVLTQPPSVSESPGKTISISCTRSSGTFARNSVHWYLQRPGSVPKTVIYDGNRRPSGIPGRFSASIDVSSGSASLTISGLTPEDEAEYYCQSYDGGNHVVFGGGTKVTVL
B6: c31461 (antibody, V domains shown)
VH: QLQLQESGPGLVKPSETLSLTCSASGVSIGGGSSFLGWIRQPPGMGLEWIVTHYSAAKIYYNPSLQSRVITSLDTSKTQFSLKLTSMTATDTAIYYCARGNWQLQAFDSWGQGILVTVSS
VL: DIQMTQSPSTLSASVGDRVTITCRASQDIRSWLAWYQQKPGEAPKLLIYTASRLHSGVPSRFSGSGSGTEFTLTISSLQPDDFATYYCQQHNSYSGTFGQGTKVEIK
B7: c27236 (antibody, V domains shown)
VH: QVQLVQSGAEVKTPGSSVKVACKTSGGPFSSYAISWIRQAPGEGLEWMGGVTPLFGTARYTQKFQGRLTITTDESTSTTYMSLSGLKSEDTAVYYCASLAYIGSGPKWGQGALVTVSS
VL: DIQMTQSPSAMSASVGERVTITCRASQGISSDLAWFQQKPGKVPERLIYAASNLQSGVPSRFSGSGSGTQFTLTISGLQAEDSATYYCLQHDSYPWTFGQGTKVEIK
B8: c5300 (antibody, V domains shown)
VH: QMQLQESGPGLVKPSETLTVTCYVSGGSISRYHWAWIRQSAGKPLEWIGSVYGNSGSVRSSPSLHTRVALVIGSTYFSLKLKSATAADTAVYYCARELARDFNYDFGHGGSSFGIDVWGRGIMVTVSS
VL: NFILTQPHSVSGSPGKTVIISCTRSSGNIGDNSVQWYQHRPGTSPTTVISEKNRRPSGIPGRFSASIDTSSNSASLTISDLRSEDEAVYYCQSCDGGNRLIFGGGTTLTVL
B9: c13501 (antibody, V domains shown)
VH: QVQLQQWGAGLLKPSETLSLTCAIYGGSFDDNSWTWIRQSPGGGLEWIGEIKYSGTSDYNLSLKSRITMSIDMSKKQFSLKLTSVTAADTGLYFCARARLSKFNSAWSWEHHYYMDVWATGTAVTVSS
VL: DIQMTQSPSSLSASVGDRVTVTCRASQNIGNYLNWYQQKPGKAPKLLIFATSTLHGGVPSRFSGSGSGTDFTLSITNVQSEDVAIYFCQQSYSVPYSFGRGTSLDMR
B10: c18622 (antibody, V domains shown)
VH: EVRLLESGGGLVQPGQSLRLSCAASGFTFRNYALAWVRQTPRKGLEWVSLLSSSGDGAFYADSLKGRFTISRDNSKNTLYLEGHSLRADDSAIYYCVKVRWLQYDWHFDLWGRGALVTVSS
VL: AIRMTQSPSTLSASVGDRVTIACRASQDIGSSLAWYQQRPGQAPRLLIYKASVLEGGVPSRFSGSGSGTEFRLIISSLQADDYATYYCQQYSGYSCTFGQGTKVDIT
B11: c1369 (antibody, V domains shown)
VH: QVRLHQWGEGLLRPSDTLSLTCSLSGNVFYRTFFNWIRQSPGKGLEWIAEVSFAGDWTYNPSLKSRVTTYVDGFKYHVSLQMRSMTAADAGVYYCASGGGSFDVDSWGQGIRVTVSS
VL: EIVLTQTPLSSSVTLGQSASISCRSSQSLQHSNGNTYLSWFQQRPGQPPRLLIRKISNRFSEVPDRFTGSGSGTDFTLTIDRVEPEDVGTYYCVQATQFPWTFGQGTTVDIT
B12: c29288 (antibody, V domains shown)
VH: B1 VH with N75K, Q77H, N104D, D106E, V108A, I119M, K126I
VL: B1 VL with V48I, Q79H, A92M, A93G
B13: c5539 (antibody, V domains shown)
VH: QVRLEQWGPGLLKPSETLSLTCAVYGESFDDYSWTWIRQTPSLGLQWIGEIRPFGEIVHKSSLSGRLSFSRDASMRRVYLKLTSVTAADAGVYFCARGPVIYQNPHFYYRGYNVWGQGTTVTVSA
VL: DVAVTQSPRSLVVTPGETATIFCRSSQSLRHGNGMHYLDWYLQKPGQSPQLLIYLTSNRASGVPDRFSGSGSGTEFTLKISRVEADDVGIYYCMQAIQDPRVFGQGTRLELK
B14: c5221 (antibody, V domains shown)
VH: QPQMKQSGIEVKKPGAAVKVSCKPSGYWFIACGISWVRQAPGRGLEWLGWVYPYNGKVNLARKFWGRVTLTADRSTETAYMELKSLTSDDTAIYYCARDSEQYDAAMPNYFTEYGMDVWGQGTTVIVSS
VL: EIVLTQSPDTLSLSPGETAALSCRASQSITGKGLAWYKQRPGQPPSLFVFGVSKRAAGVPDRVSGSGSGTDYILTIRRLEPEDSAVYFCQQYQDPARTFGQGTKLEIK
B15: c11673 (antibody, V domains shown)
VH: EVKLVESGGTQVQPGGSLRISCVGSGIRFSSYSFNWVRQAPGKGPEWLAYISASPFGRSKVTYAQSVEGRFTVSRDNDANSLYLQMTGLTRDDTAVYYCARAPYYEGNFHYNYAMDVWGLGTPVIVSS
VL: GVVLTQSPGTLSVSPGERATVSCRASQSLSRDSLVWYQQKPGQPPRLLIFGTSNRVPGIPDRFSGGGSGTQFTLTISRLEPEDFAVYYCQNYGLSPLYSFGQGTKLEIK

The binders below were run against HIV-1 NL4-3 Env on infected cells (HIV-1 group M subtype B, NL4-3 (pNL4-3 …, strain)).
B1: binds. B2: binds. B3: binds. B4: binds. B5: binds. B6: binds. B7: binds. B8: binds. B9: binds. B10: binds. B11: binds. B12: binds. B13: binds. B14: binds. B15: binds.
